# T1: Human RNF43 extracellular domain (amino acids 1-190) with a Flag tag on its C terminus (human, UniProt Q68DV7 24-190)
# T1 construct: also called recombinant human RNF43; human RNF43 ECD
# T1 sequence: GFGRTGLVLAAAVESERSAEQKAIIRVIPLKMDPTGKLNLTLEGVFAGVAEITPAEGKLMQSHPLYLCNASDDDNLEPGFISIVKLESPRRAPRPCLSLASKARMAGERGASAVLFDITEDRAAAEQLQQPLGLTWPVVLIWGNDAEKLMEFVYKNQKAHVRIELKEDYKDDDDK
# T2: Human RNF43 ECD with Fc region fused on its C-terminus (human)
# T2 construct: also called RNF43-Fc
# T2 chain: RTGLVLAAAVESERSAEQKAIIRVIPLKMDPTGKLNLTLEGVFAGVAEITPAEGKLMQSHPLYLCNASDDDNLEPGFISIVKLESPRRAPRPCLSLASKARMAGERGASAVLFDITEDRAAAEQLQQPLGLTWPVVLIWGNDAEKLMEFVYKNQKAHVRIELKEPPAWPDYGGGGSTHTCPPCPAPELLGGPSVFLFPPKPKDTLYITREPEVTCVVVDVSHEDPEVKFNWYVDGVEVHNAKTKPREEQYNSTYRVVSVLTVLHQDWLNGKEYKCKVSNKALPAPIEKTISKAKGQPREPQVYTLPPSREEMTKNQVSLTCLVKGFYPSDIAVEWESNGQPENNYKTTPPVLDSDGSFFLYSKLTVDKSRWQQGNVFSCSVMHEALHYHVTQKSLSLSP
# B1: RNN0275kk (antibody, human IgG1, kappa, N297A, V domains shown)
# VH: QSVEESGGRLVTPGTPLTLTCTVSGWTINSYHMCWVRQAPGEGLEWIATITTGGVTFYANWARGRFTISKTSTTVDLKMTSLTAADTATYFCVRGPDYTYFDLWGPGTLVTVSS
# VL: NVVLTQTPSSVSAAVGGTVTIKCQASQSISDTLAWYQQKPGQPPKLLIYYASDLASGVPSRFSGSGSGTEFTLTINDLECADAATYYCQSYVYSNGIDNTFGGGTKVEIKR
# notes: Rabbit variable regions recombined with BS03aHis heavy-chain constant region and hk0MC light-chain constant region; also called anti-RNF43 monospecific antibody
# B2: RNN0246jj (antibody, human IgG1, kappa, N297A)
# heavy: QSVEESGGRLVTPDETLTLTCTVSGFSLNNYHMIWVRQAPGEGLEYIGFINTGGSAYYANWAKGRFTISKTSTTVDLKITSPTTEDTATYFCASVSWRTDYSFELWGPGTLVTVSSASTKGPSVFPLAPSSRSTSESTAALGCLVKDYFPEPVTVSWNSGALTSGVHTFPAVLQSSGLYSLSSVVTVPSSSLGTKTYTCNVDHKPSNTKVDKRVEPKSCDKTHTCPPCPAPELRRGPKVFLFPPKPKDTLMISRTPEVTCVVVDVSQEDPEVQFNWYVDGVEVHNAKTKPREEQFASTYRVVSVLTVLHQDWLNGKEYKCKVSNKGLPSSIEKTISKAKGQPREPQVYTLPPSREEMTKNQVSLTCLVKGFYPSDIAVEWESNGQPENNYKTTPPYLDSDGSFFLYSKLTVDKSRWQQGNVFSCSVMHEALHNHYTQESLSLSPHHHHHHHH
# light: AQVLTQTPSPVSAAVGGTVTISCQASQSVYANNRLAWFQQKPGQPPKLLIYSASTLASGVPSRFKGSGSGTQFTLTISGVQCDDAATYYCAGAYTGNIYTFGGGTKVEIKRTVAAPSVFIFPPSDEQLKSGTASVVCLLNNFYPREAKVQWKVDNALQSGNSQESVTEQDSKDCTYSLSSTLTLSKADYEKHKVYACEVTHQGLSSPVTKSFNRGEC
# notes: as for B1
# B3: RNN0276oo (antibody, human IgG1, kappa, N297A, V domains shown)
# VH: QSVEESGGRLVTPGTPLTLTCTVSGFSLSSYAMNWVRQAPGKGLEWIGVIGSSGRTYYASWAKGRFTSSKTSTTVVLKITSPTTEDTATYFCARGPYDSYGDGGVTGDLWGPGTLVTVSS
# VL: AQVLTQTPSPVSAAVGGTVTINCQSSQSVYNNNNLAWYQQKPGQPPKLLIYRASTLASGVPSRFKGSGSGTQFTLTISGVQCEDAATYYCQGGYDCSSADCDTFGGGTKVEIKR
# notes: as for B1
# B4: RNN0207ii with rabbit constant region (antibody)
# heavy: QEQLEESGGRLVTPGGSLTLTCTASGFSLSSYVISWVRQAPGEGLEYIGYVSTGGSPYYASWAKGRFTISRTSTAVDLKMTSLTASDTATYFCARYGYLDYSGLDLWGQGTLVTVSSGQPKAPSVFPLAPCCGDTPSSTVTLGCLVKGYLPEPVTVTWNSGTLTNGVRTFPSVRQSSGLYSLSSVVSVTSSSQPVTCNVAHPATNTKVDKTVAPSTCSKPMCPPPELLGGPSVFIFPPKPKDTLMISRTPEVTCVVVDVSQDDPEVQFTWYINNEQVRTARPPLREQQFNSTIRVVSTLPIAHQDWLRGKEFKCKVHNKALPAPIEKTISKARGQPLEPKVYTMGPPREELSSRSVSLTCMINGFYPSDISVEWEKNGKAEDNYKTTPTVLDSDGSYFLYSKLSVPTSEWQRGDVFTCSVMHEALHNHYTQKSISRSPGK
# light: AQVLTQTPSSTSTAVGGTVTINCQSSQSVYEYNHLSWFQQKPGQPPKLLIYGASTLASGVPSRFKGSGSGTQFTLTISDLECDDAATYYCQGAYYGVVDTFGGGTKVEIKRDPVAPTVLIFPPAADQVATGTVTIVCVANKYFPDVTVTWEVDGTTQTTGIENSKTPQNSADCTYNLSSTLTLTSTQYNSHKEYTCKVTQGTTSVVQSFNRGDC
# B5: RNN0192nn with rabbit constant region (antibody)
# heavy: QEQLVESGGGLVQPEGSLTLTCTASGFSFSSRYYMCWVRQAPGKGLEWIGCIYTGSGSTYYASWAKGRVTISKTSSTTVTLQMTSLTAADTATYFCAREAGSFNLWGPGTLVTVSSGQPKAPSVFPLAPCCGDTPSSTVTLGCLVKGYLPEPVTVTWNSGTLTNGVRTFPSVRQSSGLYSLSSVVSVTSSSQPVTCNVAHPATNTKVDKTVAPSTCSKPMCPPPELLGGPSVFIFPPKPKDTLMISRTPEVTCVVVDVSQDDPEVQFTWYINNEQVRTARPPLREQQFNSTIRVVSTLPIAHQDWLRGKEFKCKVHNKALPAPIEKTISKARGQPLEPKVYTMGPPREELSSRSVSLTCMINGFYPSDISVEWEKNGKAEDNYKTTPTVLDSDGSYFLYSKLSVPTSEWQRGDVFTCSVMHEALHNHYTQKSISRSPGK
# light: DVVMTQTPASVSEPVGGTVTIKCQASQSIYSGLAWYQQKPGQPPKLLIYSASKLASGVPSRFKGSGSGTEYTLTISDLECADAATYYCQNYYYGISNGWTFGGGTKVEIKRDPVAPTVLIFPPAADQVATGTVTIVCVANKYFPDVTVTWEVDGTTQTTGIENSKTPQNSADCTYNLSSTLTLTSTQYNSHKEYTCKVTQGTTSVVQSFNRGDC
# B6: RNN0187jj with rabbit constant region (antibody)
# heavy: QSLEESGGDLVKPGASLTLTCTASGFSFNSAYYMCWVRQAPGKGLEWIGCIYTGSGSTYYASWAKGRFTISKTSSTTVTLQMTSLTVADTATYFCARSGVSTYYTLWGPGTLVTVSSGQPKAPSVFPLAPCCGDTPSSTVTLGCLVKGYLPEPVTVTWNSGTLTNGVRTFPSVRQSSGLYSLSSVVSVTSSSQPVTCNVAHPATNTKVDKTVAPSTCSKPMCPPPELLGGPSVFIFPPKPKDTLMISRTPEVTCVVVDVSQDDPEVQFTWYINNEQVRTARPPLREQQFNSTIRVVSTLPIAHQDWLRGKEFKCKVHNKALPAPIEKTISKARGQPLEPKVYTMGPPREELSSRSVSLTCMINGFYPSDISVEWEKNGKAEDNYKTTPTVLDSDGSYFLYSKLSVPTSEWQRGDVFTCSVMHEALHNHYTQKSISRSPGK
# light: DVVMTQTPSSVSAAVGGTVTIKCQASQSIYSGLAWYQQKPGQPPKLLIYGASTLASGVPSRFKGSGSGTEYTLTISGVQCDDAATYYCQNNYYTPSNGWAFGGGTKVEIKRDPVAPTVLIFPPAADQVATGTVTIVCVANKYFPDVTVTWEVDGTTQTTGIENSKTPQNSADCTYNLSSTLTLTSTQYNSHKEYTCKVTQGTTSVVQSFNRGDC
# Biological target: T1, Human RNF43 extracellular domain (amino …)
# Test: SPR, Biacore T200, antibody captured by anti-human Fc, RNF43 as analyte, pH 7.4, 25 C
# Experimental: The affinity of the anti-RNF43 monospecific antibodies towards human RNF43 at pH 7.4 was determined at 25 degrees C. using the Biacore T200 instrument (GE Healthcare). Anti-human Fc (GE Healthcare) was immobilized onto all flow cells of a CM4 sensor chip using an amine coupling kit (GE Healthcare). All antibodies and analytes were prepared in ACES at pH 7.4 containing 20 mM ACES, 150 mM NaCl, 0.05% Tween 20, 0.005% NaN₃. Each antibody was captured onto the sensor surface by anti-human Fc. Antibody capture levels were aimed at 312 resonance unit (RU). Recombinant human RNF43 was injected at 200 nM, 50 nM, and 12.5 nM prepared by a four-fold serial dilution, followed by dissociation. The sensor surface was regenerated each cycle with 3M MgCl2. Binding affinity was determined by processing and fitting the data to a 1:1 binding model using the Biacore T200 Evaluation software, version 2.0 (GE Healthcare).
Binder,Kd [nM],koff [s⁻¹],kon [M⁻¹ s⁻¹]
B1,65.6,0.131,1.99e+06
B2,48.6,0.00944,194000
B3,117,0.0227,193000

# Biological target: T2, Human RNF43 ECD with Fc region fused on …
# Test: competition ELISA on coated RNF43-Fc; first antibody unlabelled at 10x its EC50, second (reference) antibody biotinylated RNN0187jj at its EC50
# Experimental: (§1) EC50 concentration for the binding of each anti-RNF43 monospecific antibody to RNF43-Fc (described in Example 2) was first determined by ELISA assay, using the biotinylated antibodies. In brief, RNF43-Fc at 5 micro g/mL or 1 micro g/mL was coated on Maxisorp plate (NUNC) at 4 degrees C. overnight. The coated plate was then washed with PBS-T, followed by blocking with Blocking One solution (Nacalai Tesque) for 2 hours at room temperature. Serially diluted, biotinylated anti-RNF43 monospecific antibody was then added and incubated for 1 hour at room temperature. After washing with PBS-T, StAv-HRP (PIERCE) was added and incubated for 1 hour at room temperature. After washing with PBS-T, ABTS Peroxidase substrate (SeraCare Life Sciences) was added and signal intensity was measured using Multiskan™ GO Microplate Spectrophotometer. EC50 concentration for the binding of the anti-RNF43 monospecific antibody to RNF43-Fc was calculated using Non-linear regression 4-parameter fit. The normalized absorbance at 405 nm/570 nm measured when EC50 concentration of anti-RNF43 antibodies was applied is denoted as AO.
# (§2) To evaluate binding competition between the anti-RNF43 monospecific antibodies, ELISA assay with similar setting was conducted. RNF43-Fc was first coated in Maxisorp plate overnight. […] After washing with PBS-T, ABTS Peroxidase substrate was added and signal intensity was measured using Multiskan™ GO Microplate Spectrophotometer. The normalized absorbance at 405 nm/570 nm is denoted as A.
row,Binder,binding inhibition (%)
1,B4,-0.38
2,B5,91
3,B6,30.7

# Biological target: T2, Human RNF43 ECD with Fc region fused on …
# Test: competition ELISA on coated RNF43-Fc; first antibody unlabelled at 10x its EC50, second (reference) antibody biotinylated RNN0192nn at its EC50
# Experimental: as §1, §2
row,Binder,binding inhibition (%)
1,B4,-3.55
2,B5,88.5
3,B6,60.6

# Biological target: T2, Human RNF43 ECD with Fc region fused on …
# Test: competition ELISA on coated RNF43-Fc; first antibody unlabelled at 10x its EC50, second (reference) antibody biotinylated RNN0193jj at its EC50
# Experimental: as §1, §2
row,Binder,binding inhibition (%)
1,B4,1.05
2,B5,0.25
3,B6,2.35

# Biological target: T2, Human RNF43 ECD with Fc region fused on …
# Test: competition ELISA on coated RNF43-Fc; first antibody unlabelled at 10x its EC50, second (reference) antibody biotinylated RNN0207ii at its EC50
# Experimental: as §1, §2
row,Binder,binding inhibition (%)
1,B4,65.9
2,B5,-6.42
3,B6,1.89

# Biological target: T2, Human RNF43 ECD with Fc region fused on …
# Test: competition ELISA on coated RNF43-Fc; first antibody unlabelled at 10x its EC50, second (reference) antibody biotinylated RNN0242nn at its EC50
# Experimental: as §1, §2
row,Binder,binding inhibition (%)
1,B4,-0.71
2,B5,45.6
3,B6,22.3

# Biological target: T2, Human RNF43 ECD with Fc region fused on …
# Test: competition ELISA on coated RNF43-Fc; first antibody unlabelled at 10x its EC50, second (reference) antibody biotinylated RNN0246jj at its EC50
# Experimental: as §1, §2
row,Binder,binding inhibition (%)
1,B4,-1.38
2,B5,21.9
3,B6,15.1
